The text below walks through data of paper PMC4973555, “Engineering Saccharomyces cerevisiae with the deletion of endogenous glucosidases for the production of flavonoid glucosides” (Microbial Cell Factories, 2016).

First the molecules themselves.
B1: SbGT56 (Scutellaria baicalensis) (protein)
chain: MGQLHIVLVPMIAHGHMIPMLDMAKLFSSRGVKTTIIATPAFAEPIRKARESGHDIGLTTTKFPPKGSSLPDNIRSLDQVTGDLLPHFFRALELLQEPVEEIMEDLKPNCLVSDMFLPWTTDSAAKFGIPRLVFHGTSLFARCFSEQMSIQKPYKNVSSDSEPFVLRGLPHEVSFVRTQIPDYELQEGGDDAFSKMAKQMRDADKKSYGDVINSFEELESEYADYNKNVFGKKAWHIGPLKLFNNRAEQKSSQRGKESAIDDHECLAWLNSKKPNSVVYMCFGSMATFTPAQLHETAVGLESSGQDFIWVVRNGGKNEDWLPQGFEERIKGKGLMIRGWAPQVMILDHPSTGAFVTHCGWNSTLEGICAGLPMVTWPVFAEQFYNEKLVTEVLKTGVSVGNKKWQRVGEGVGSEAVKEAVERVMVGDGAAEMRSRAVYYKEMARKAVEEGGSSYNNLNALIQELSAYVPPMKQGLN
notes: full-length cDNA in pTWIN1B; E. coli BL21 (DE3)
B2: SbGT34 (Scutellaria baicalensis) (protein)
chain: MGQLHIVLVPMIAHGHMIPMLDMAKLFSSRGVKTTIIATPAFAEPIRKARESGHDIGLTTTKFPPKGSSLPDNIWSLDQVTDDLLPHFFRALELLQEPVEEIMEDLKPNCLVSDMFLPWTTDSAAKFGIPRLLFHGTSLFARCFAEQMSLQKPYKNVSSDSEPFVLRGLPHEVSFVRTQIPGYELQEGGDDAFSKMAKQMRDADKKSYGDVINNFEELESEYVDHYKNVFGKKAWHIGPLSLCNNRAEQKSPIDDHECLAWLNSKKPNSVVYMCFGSMATFTPAQLHETAVGLESSGQDFIWVVRNGGENEDWLPQGFEERIKGKGLMIRGWAPQVMILDHPSTGAFVTHCGWNSTLEGICAGLPMVTWPVFAEQFYNEKLVTEVLKTGVSVGNKKWQRVGEGVGSEAVKEAVERVMVGDGAAEMRSRAIYYKEMARKAVEEGGSSYNNLNALIEELSAYVPPMKQGLN
notes: as for B1
B3: SbGT30 (Scutellaria baicalensis) (protein)
chain: MGQLHIVLVPMIAHGHMIPMLDMAKLFSSRGVRTTIIATPAFAEPIRKARESGHDIGLTTTKFPPKGSSLPDNILSLDQVTHDLLPHFFRALELLQEPVEEIMEDLKPNCLVSDMFLPWTTDSAAKFGIPRLLFHGTSLFARCFAEQMSLQKPYKNVSSDSEPFVLRGLPHEVSFVRTQIPGYELQEGGDDAFSKMAKQMRDADKKSYGDVINSFEELESEYVDHYKNVFGKKAWHIGPLSLCNNRAEQKSPIDDHECLAWLNSKKPNSVVYMCFGSMATFSPAQLHETAVGLESSGQDFIWVVRNGGENEDWLPQGFEERIKGKGLMIRGWAPQVVILDHPSTGAFVTHCGWNSTLEGICAGLPMVTWPVFAEQFYNEKLVTEVLKTGVSVGNKKWQRVGEWVGSEAVKEAVEWVMVGDGAAEMRSRANYYKEMARKAVEDGGSSYNNLNALIQELSAYVPPMKQGLN
notes: as for B1

Substrate in this data set: O=c1cc(-c2ccc(O)cc2)oc2cc(O)c(O)c(O)c12
Briefly: HPLC glucosyltransferase assay, Lineweaver-Burk plot. The settings on record: 2 mM UDP-glucose (saturating), 50 mM Tris-HCl pH 7.5, 30 °C. The data set is classed as biochemical, Scutellaria baicalensis.
On to B1, for which the Km came to 222 µM. As to B2, the Km turned out to be 121 µM. Take B3: the Km turned out to be 188 µM.

Broadly, the Km is the substrate concentration at which the rate is half of its maximum.
